Data set [1] deals with BALB/c 3T3 cells. Kind of data set: Proliferation of BALB/c 3T3 cells in low-serum medium, phase-contrast microscopy. It is filed as cell-based, mouse. Particulars: 0.5% FBS, 1 μM ECP, 60 pM bFGF, 48 hours, FIG. 4. As for the experimental part:
In DMEM culture medium containing 10% FBS in a 24-well culture plate, BALB/c 3T3 cells were inoculated at a concentration of 2×10^4 cells/well, and cultured. […] After 24 hours, 1 μM ECP or RNaseA, and 60 pM bFGF were added to the culture solution in combination, respectively, then the culture was continued for an additional 48 hours.

Data set [2] relates to BALB/c 3T3 cells. Kind of data set: Cytoskeletal molecule (stress fiber) formation in low-serum medium, confocal immunostaining. It is filed as cell-based, mouse. Particulars: 0.5% FBS, 1 μM ECP, 6 hours, FIG. 5. As for the experimental part: A round cover glass with a diameter of 15 mm which had been sterilized in advance was placed in a 24-well culture plate, 1× phosphate buffer (PBS) containing 0.1% gelatin was added to each well so that the cover glass was sufficiently dipped in the solution. Then, the plate was left at room temperature for 30 minutes, whereby the cover glass was coated with gelatin. Then, each well was filled with DMEM culture medium containing 10% FBS, and BALB/c 3T3 cells were inoculated at a concentration of 2×10^4 cells/well and cultured. […] After an additional 24 hours, 1 μM ECP or RNaseA was added to the culture solution, respectively. After 6 hours, the cover glass on which BALB/c 3T3 cells were grown, was taken out from the well, washed 2 to 3 times with 1× PBS, then dipped in 4% formaldehyde (Wako Pure Chemical Industries, Ltd.) at room temperature for 10 minutes, whereby the cells were fixed. Then, the cover glass was washed 2 to 3 times with 1× PBS, dipped in 1× PBS containing 0.1% Trton-X100 for 10 minutes, whereby the cell membranes were lysed. Then, the cover glass was washed 2 to 3 times with 1× PBS, dipped in 0.5% BSA/PBS and left at room temperature for 30 minutes, whereby a nonspecific adsorption region was blocked with BSA in this operation. […]

For data set [3], the system named is mouse mammary epithelial cell line (HC-11). Kind of data set: Proliferation of cell lines derived from normal tissue, 10% FBS, MTT. It is filed as cell-based. Particulars: ECP 0 to 10 μM, 48 hours, FIG. 1. As for the experimental part: (§1) The effects of ECP on the proliferation of a mouse fibroblast cell line (BALB/c 3T3), aortic smooth muscle cell line (A10), mouse mammary epithelial cell line (HC-11) and human umbilical vessel endothelial cell line (HUVEC) were analyzed in the presence of 10% FBS. First, in DMEM culture medium containing 10% FBS in a 96-well culture plate, each cell line was inoculated at a concentration of 500 cells/well. Then, the cells were cultured for 24 hours in an incubator in which CO2 was maintained at 5%. Then, the respective concentrations of ECP and RNaseA (0 to 10 μM) were added, and the culture was continued for 48 hours in the same incubator. Then, 3-(4,5-dimethylthiazol-2-yl)-diphenyl-tetrazolium bromide (MTT) was added, and the proliferation rate of each cell line was obtained.

Data set [4] deals with mouse fibroblast cell line (BALB/c 3T3). Described as above. It is filed as cell-based. Particulars: ECP 0 to 10 μM, 48 hours, FIG. 1. The method, then: as §1
In data set [5] the test system is aortic smooth muscle cell line (A10). The data set is described as above. Particulars: ECP 0 to 10 μM, 48 hours, FIG. 1. The format is cell-based. The method, then:
as §1

The subject of data set [6] is human umbilical vessel endothelial cell line (HUVEC). The data set is described as above. It is filed as cell-based. Particulars: ECP 0 to 10 μM, 48 hours, FIG. 1. The method, then:
as §1

The subject of another data set is MC3T3-E1 cells. Description: Alkali phosphatase (ALP) activity in osteoblast-like cells. The format is cell-based, rat. Particulars: ECP at 1 ng/ml vs BMP-4 100 ng/ml, 72 hours, FIG. 12. The method, then:
MC3T3-E1 cells were inoculated into α-MEM medium in a 24-well culture plate, and ECP (at a final concentration of 1 ng, 10 ng, 100 ng or 1 μg per ml), BMP-4 (100 ng/ml) or bFGF (100 ng/ml) was added. After 72 hours, the cells were washed with 10 mM Tris-HCl (pH 7.2) solution twice, and lysed in 10 mM Tris-HCl (pH 7.2) solution containing 0.1% Triton-X100. Then, the cell lysis solution was subjected to sonication treatment for 15 seconds to homoginize the cells. Then, 100 μl of the homogenized cell solution and 0.1 M aminomethyl propanol were mixed with 100 μl of a substrate solution (4 mg/ml p-nitorophenyl phosphate and 2 mM MgCl2) adjusted at pH 10.5, and they were reacted with each other at 37° C. for 30 minutes. The reaction was terminated with 0.5 M NaOH, and the absorbance at 410 nm was measured. The obtained value was divided by the total amount of proteins in the homogenized cell solution, whereby the specific activity was calculated.

The next data set relates to PC12 cells. Description: Survival of nerve like PC12 cells in serum-free medium, Cell Titer-Glo. Particulars: serum-free DMEM, 72 hours, ECP 10 and 1000 ng/ml, FIG. 11. The format is cell-based. The method, then:
PC12 cells were cultured overnight in a 96-well culture plate at 1×10^4 cells/well/100 μl. As the culture medium, DMEM culture medium containing 10% FBS, penicillin, and streptomycin was used. Then, washing was performed once with 150 μl of DMEM, and the medium was changed to DMEM culture medium containing 100 μl of ECP, penicillin, and streptomycin. After cells were cultured for 72 hours, the number of living cells was counted using Cell Titer-GloTM Luminescent Cell Viability Assay (No. G7570; Promega).
For orientation: Cellular ATP, detected with luciferase, serves as a proxy for viable cell number.

Data set [7] has as its system myocardial cell derived from newborn rat. Kind of data set: Number of heartbeats of myocardial cells. The format is cell-based. Particulars: ECP 10 ng, 100 ng or 1 μg per ml; 24 hours; FIG. 9. The method, then:
Myocardial cells isolated from a newborn rat were dedifferentiated in the same manner as in Example 7 and ECP was added to the culture solution (10 ng, 100 ng or 1 μg per ml). Twenty-four hours after the addition, the number of heartbeats was counted.
Further, the effects of a ROCK inhibitor (Y27632) on the effects of ECP on increase in the number of heartbeats of myocardial cell were studied. The adding amounts of Y27632 were set at 0, 5, 10 and 15 μM, and the ECP concentration was set at 100 ng/ml.

The subject of data set [8] is BALB/c 3T3 cells. Description: Time-course proliferation of BALB/c 3T3 cells, living cells counted every 24 hours. Particulars: 10% FBS, 4 days, medium changed on day 2, FIG. 3. The format is cell-based, mouse. As for the experimental part: In DMEM culture medium containing 10% FBS in a 96-well culture plate, BALB/c 3T3 cells were inoculated at a concentration of 1000 cells/well. After the cells were cultured for 24 hours, 1 μM ECP or 1 μM RNaseA was added to the culture solution to a final concentration of […], respectively. The culture was continued for 4 days, and the number of living cells was counted for every 24 hours. Incidentally, the culture medium was changed on day 2 of the culture.

For data set [9], the system named is myocardial cell derived from newborn rat. Description: Immunofluorescence staining of dedifferentiated myocardial cells. It is filed as cell-based. Particulars: ECP 100 ng/ml; 24 hours; FIG. 8. As for the experimental part: The cultured myocardial cells were cultured in SFM (2 μM BrDU, 100 units/ml penicillin, 100 μg/ml streptomycin) for 48 hours, whereby the cells were dedifferentiated. Then, the culture medium was changed, and ECP was added to a final concentration of 100 ng/ml. After an additional 24 hours, the cells were washed three times with 1× PBS for 10 minutes each, then dipped in 4% paraformaldehyde at room temperature for 30 minutes, whereby the cells were fixed. Then, the cells were dipped in PBS containing 0.25% Triton-X100 at room temperature for 15 minutes, and reacted in a blocking buffer containing BSA, to which anti-ENH1 antibody had been added at a ratio of 1:40, or anti-α-actinin antibody had been added at a ratio of 1:100, at 4° C. overnight. Then, a 20-minute washing with PBS containing 0.03% Triton-X100 was performed and the washing was repeated three times. To the blocking buffer, Cy3-labeled anti-mouse antibody and Cy2-labeled anti-rabbit IgG antibody were added (1:250 dilution in blocking buffer), respectively, and reaction was performed at 4° C. for 4 hours. After the reaction, a 20-minute washing with PBS containing 0.03% Triton-X100 was performed again and the washing was repeated three times. Then, water content was removed and 90% glycerol was added.

In a further data set the test system is BALB/c 3T3 A31-K cells. Description: Proliferation of BALB/c 3T3 cells, number of living cells after 48 hours. The format is cell-based, mouse. Particulars: 10% FBS, FIG. 2. As for the experimental part: In DMEM culture medium containing 10% FBS in a 96-well culture plate, BALB/c 3T3 A31-K cells were inoculated at a concentration of 1000 cells/well, and after 24 hours, ECP or RNaseA was added to the culture solution to a final concentration of 1 μM, respectively. After the culture was continued for 48 hours, the number of living cells was counted.

Turning to “bFGF: bFGF, added at 60 pM to low-serum culture”, the “cell proliferation in low-serum medium (phase-contrast observation)” value with BALB/c 3T3 cells [1] is “The cells were proliferated”.

B1: eosinophil cationic protein (protein, UniProt P12724 28-160, looked up)
Eosinophil cationic protein: RPPQFTRAQWFAIQHISLNPPRCTIAMRAINNYRWRCKNQNTFLRTTFANVVNVCGNQSIRCPHNRTLNNCHRSRFRVPLLHCDLINPGAQNISNCTYADRPGRRFYVVACDNRDPRDSPRYPVVPVHLDTTI
For the molecule B1, in the data set with BALB/c 3T3 cells [2], the “formation of cytoskeletal molecules (stress fibers)” value is given as “increase in the formation of many cytoskeletal molecules (stress fibers) was confirmed”. In addition, the “cell proliferation (proliferation rate, MTT)” value in data set [3] is on record as “the proliferation was not promoted or the proliferation was inhibited”; in data set [4] it was “the cell proliferation was promoted”; in data set [5], “the proliferation was not promoted or the proliferation was inhibited”; in data set [6], “the proliferation was not promoted or the proliferation was inhibited”. Also, the “ALP activity (specific activity, control = 100%)” value in the data set with MC3T3-E1 cells was “equal to or higher than that of BMP-4”. For the same molecule, in the data set with PC12 cells, the “survival of nerve cells (number of living cells)” value is “the survival of nerve cells was maintained”. In addition, the “number of heartbeats of myocardial cell” value in data set [7] was “increased in a dose-dependent manner”. The “time-course cell proliferation (number of living cells)” value with BALB/c 3T3 cells [8] is given as “the proliferation of cells was significantly promoted”. The “effect on cardiac hypertrophy in myocardial cell (immunofluorescence staining)” value in [9] is reported as “an effect of ECP on cardiac hypertrophy in a myocardial cell was confirmed”. For the same molecule, the “cell proliferation (number of living cells)” value in the data set on BALB/c 3T3 A31-K cells is given as “significantly promoted the cell proliferation at any concentration”.

B2: RNaseA: RNaseA, added as comparison protein alongside ECP (protein, UniProt P61823 27-150, looked up)
Ribonuclease pancreatic: KETAAAKFERQHMDSSTSAASSSNYCNQMMKSRNLTKDRCKPVNTFVHESLADVQAVCSQKNVACKNGQTNCYQSYSTMSITDCRETGSSKYPNCAYKTTQANKHIIVACEGNPYVPVHFDASV
Regarding B2, the “cell proliferation (number of living cells)” value with BALB/c 3T3 A31-K cells is listed as “could not be observed”.
